Source: patent publication US20230391828

Tested on: T1, G3-6, Ac-cyclo(4,11)-EWWZIKEIQRXRRA-NH2
T1 sequence: EWWXIKEIQRXRRA

Substance: recombinant human APC/C (Strep-tagged APC4), expressed in SF9 cells
- in vitro APC/C ubiquitination assay with different E2 enzymes (UBE2C, UBE2D, UBE2S), Ub-cyclin B1 substrate, 100 µM, 40 min: The lead molecule G3-6 (SEQ. ID. NO. 33) inhibits APC/C in vitro independently on employed E2 enzymes.
